# Positions count from the first letter of the chain named. “Also recorded” adds a separate entry of the source.
# T1: E6APR626A (Homo sapiens, UniProt Q05086, R649A)
# T1 construct: made in house; host or cells: E. coli
# T1 sequence (Q05086 1-872 isoform Q05086-3 R646A): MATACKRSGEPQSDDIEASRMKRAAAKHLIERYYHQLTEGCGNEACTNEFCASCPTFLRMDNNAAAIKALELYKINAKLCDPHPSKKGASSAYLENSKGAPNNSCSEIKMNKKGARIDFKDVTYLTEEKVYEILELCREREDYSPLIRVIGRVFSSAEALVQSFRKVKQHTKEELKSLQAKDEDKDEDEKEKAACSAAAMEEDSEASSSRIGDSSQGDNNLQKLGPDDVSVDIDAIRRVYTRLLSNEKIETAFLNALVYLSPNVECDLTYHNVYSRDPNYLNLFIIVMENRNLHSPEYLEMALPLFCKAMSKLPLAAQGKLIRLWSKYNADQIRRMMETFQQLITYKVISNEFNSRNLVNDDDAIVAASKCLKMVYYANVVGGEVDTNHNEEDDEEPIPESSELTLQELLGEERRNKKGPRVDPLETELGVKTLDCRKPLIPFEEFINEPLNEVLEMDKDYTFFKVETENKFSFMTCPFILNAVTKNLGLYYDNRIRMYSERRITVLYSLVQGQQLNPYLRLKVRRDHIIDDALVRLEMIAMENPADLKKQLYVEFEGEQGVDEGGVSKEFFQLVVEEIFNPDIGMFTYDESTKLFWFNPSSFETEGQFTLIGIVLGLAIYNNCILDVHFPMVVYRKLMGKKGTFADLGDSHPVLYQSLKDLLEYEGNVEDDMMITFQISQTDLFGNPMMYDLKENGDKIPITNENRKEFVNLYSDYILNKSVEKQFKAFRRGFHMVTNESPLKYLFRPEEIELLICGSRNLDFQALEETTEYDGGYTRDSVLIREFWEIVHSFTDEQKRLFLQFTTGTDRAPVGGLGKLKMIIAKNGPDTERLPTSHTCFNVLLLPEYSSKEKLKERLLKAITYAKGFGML
# T2: E6APF727D (Homo sapiens, UniProt Q05086, F750D)
# T2 construct: made in house; host or cells: E. coli
# T2 sequence (Q05086 1-872 isoform Q05086-3 F747D): T1 sequence (Q05086 1-872 isoform Q05086-3 R646A) with A646R, F747D
# B1: E6 protein: recombinant human papilloma virus 16 E6 protein, 158 amino acids (protein)
# chain: MHQKRTAMFQDPQERPRKLPQLCTELQTTIHDIILECVYCKQQLLRREVYDFAFRDLCIVYRDGNPYAVCDKCLKFYSKISEYRHYCYSLYGTTLEQQYNKPLCDLLIRCINCQKPLCPEEKQRHLDKKQRFHNIRGRWTGRCMSCCRSSRTRRETQL
# Columns and labels:
# E6APR626A = target: T1, E6APR626A; test: E6 rescue of 125I-polyubiquitin chain formation by E6APR626A; type: biochemical; details: 20 nM E6 protein
# Procedure: (§1) E6AP-catalyzed ^125I-Ubiquitin Conjugation Assay: The E3 ligase activity of recombinant E6AP ligase was quantitated in kinetic assays under initial velocity conditions (Ronchi et al., (2013) J. Biol. Chem. 288, 10349-10360, Ronchi & Haas (2012) Methods Mol. Biol. 832: 197-218). Rates of E6AP-catalyzed ^125I-polyubiquitin chain formation were measured at 37° C. in incubations of 25-μl final volume containing 50 mM Tris-HCl (pH 7.5), 1 mM ATP, 10 mM MgCl2, 1 mM DTT, 10 mM creatine phosphate, 1 IU of creatine phosphokinase, 5 μM ^125I-ubiquitin (approximately 1.5×10^4 cpm/pmol), 50 nM human Uba1, and the indicated concentrations of UbcH7 and E6AP ligase (Siepmann et al., (2003) J. Biol. Chem. 278: 9448-9457; Baboshina et al., (2001) J. Biol. Chem. 276: 39428-39437). […]
# (§2) Polyubiquitin chain formation was measured by excising lanes between the top of the resolving gel and the top of the stacker gel, representing anchored and free ^125I-polyubiquitin chains, respectively, and quantitating associated ^125I-ubiquitin by γ-counting. Absolute rates of ^125I-polyubiquitin chain formation were calculated from the associated radioactivity and the corrected specific radioactivity for ^125I-ubiquitin. Datum points represent single assay determinations, and complete data sets were evaluated by non-linear regression analysis using GraFit version 5.0 (Erithicus). […]
# E6APF727D = target: T2, E6APF727D; test: E6 rescue of 125I-polyubiquitin chain formation by E6APF727D; type: biochemical; details: 20 nM E6 protein
# Procedure: as §1, §2
molecule,measurement,setting,value
B1,increase in rate,E6APR626A,13 fold
same,effect on E6APF727D,E6APF727D,significantly enhanced; also recorded: rescues the kcat defect

# — patent publication US9725708B2, “Methods of modulating ubiquitin ligase activity” (Board of Supervisors of Louisiana State University and …, priority 2012, dated 2017)
